Usually IC50 stands for the concentration at which inhibition is half-maximal. By Ki is commonly meant a dissociation constant, usually derived from enzyme kinetics or from competition with a known ligand. High values mean lower affinity, low ones higher affinity.

Experimental findings from publication PMC6405639 are described below.

The target of test [1] is Y2R_cysteine_deficient_eYFP (in HEK293 cells) (human) (UniProt P49146).
The target is the same in test [2]. This is another data set of the same source.
Test [3] shares this target. Briefly: radioligand binding; displacement of 60 pM [125I]-PYY from membrane preparations (0.75 μg protein) of transiently transfected HEK293 cells; HBSS with 1% BSA, room temperature, 3 h; filtration.

Y2R_cysteine_deficient_eYFP (in HEK293 cells) (human), sequence (P49146 other isoform, or with tags, fused parts or gaps): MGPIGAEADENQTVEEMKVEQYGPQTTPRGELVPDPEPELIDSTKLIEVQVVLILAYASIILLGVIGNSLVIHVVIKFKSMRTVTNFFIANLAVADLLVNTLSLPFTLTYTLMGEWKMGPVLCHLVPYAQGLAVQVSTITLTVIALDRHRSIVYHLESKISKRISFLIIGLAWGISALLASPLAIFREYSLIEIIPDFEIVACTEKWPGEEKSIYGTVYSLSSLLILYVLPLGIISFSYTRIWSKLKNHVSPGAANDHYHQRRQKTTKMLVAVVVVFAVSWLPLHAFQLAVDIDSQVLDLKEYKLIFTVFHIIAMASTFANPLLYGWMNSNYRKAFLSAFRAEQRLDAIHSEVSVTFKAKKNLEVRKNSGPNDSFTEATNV

In test [1], 5(6)-TAMRA-Ahx(5-24)NPY (peptide) showed an EC50 of IP-one accumulation in HEK293 cells co-transfected with the receptor and the chimeric G protein GαΔ6qi4myr of 3.4 nM; an Emax of IP-one accumulation, normalised to the Y2R/NPY curve of 95%. In addition, the potency in the IP-one accumulation assay in test [2] was determined as 3.6 nM. For the same substance, in test [3], the IC50 worked out at 39 nM and the Ki amounted to 11.2 nM.
For “[K^22[(Ahx)2-biotin]Bpa^27]NPY (peptide)”, in test [1], the EC50 of IP-one accumulation in HEK293 cells co-transfected with the receptor and the chimeric G protein GαΔ6qi4myr stood at 4 nM; the Emax of IP-one accumulation, normalised to the Y2R/NPY curve worked out at 102%.
